Experimental data reported in patent US20140096284A1, “METHOD FOR THE DELIVERY OF MOLECULES LYOPHILIZED ONTO MICROPARTICLES TO PLANT TISSUES” (priority 2012, published 2014).

B1: trypsin: enzyme (Sigma) expected to digest intracellular protein (protein, UniProt P00760 24-246, looked up)
Serine protease 1: IVGGYTCGANTVPYQVSLNSGYHFCGGSLINSQWVVSAAHCYKSGIQVRLGEDNINVVEGNEQFISASKSIVHPSYNSNTLNNDIMLIKLKSAASLNSRVASISLPTSCASAGTQCLISGWGNTKSSGTSYPDVLKCLKAPILSDSSCKSAYPGQITSNMFCAGYLEGGKDSCQGDSGGPVVCSGKLQGIVSWGSGCAQKNKPGVYTKVCNYVSWIKQTIASN
B2: RNAse: enzyme (Sigma) expected to digest intracellular RNA content (protein, UniProt P61823 27-150, looked up)
Ribonuclease pancreatic: KETAAAKFERQHMDSSTSAASSSNYCNQMMKSRNLTKDRCKPVNTFVHESLADVQAVCSQKNVACKNGQTNCYQSYSTMSITDCRETGSSKYPNCAYKTTQANKHIIVACEGNPYVPVHFDASV
B3: β-glucuronidase: enzyme (Sigma) detected by X-gluc histochemical staining (protein, UniProt P05804 1-603, looked up)
Beta-glucuronidase: MLRPVETPTREIKKLDGLWAFSLDRENCGIDQRWWESALQESRAIAVPGSFNDQFADADIRNYAGNVWYQREVFIPKGWAGQRIVLRFDAVTHYGKVWVNNQEVMEHQGGYTPFEADVTPYVIAGKSVRITVCVNNELNWQTIPPGMVITDENGKKKQSYFHDFFNYAGIHRSVMLYTTPNTWVDDITVVTHVAQDCNHASVDWQVVANGDVSVELRDADQQVVATGQGTSGTLQVVNPHLWQPGEGYLYELCVTAKSQTECDIYPLRVGIRSVAVKGEQFLINHKPFYFTGFGRHEDADLRGKGFDNVLMVHDHALMDWIGANSYRTSHYPYAEEMLDWADEHGIVVIDETAAVGFNLSLGIGFEAGNKPKELYSEEAVNGETQQAHLQAIKELIARDKNHPSVVMWSIANEPDTRPQGAREYFAPLAEATRKLDPTRPITCVNVMFCDAHTDTISDLFDVLCLNRYYGWYVQSGDLETAEKVLEKELLAWQEKLHQPIIITEYGVDTLAGLHSMYTDMWSEEYQCAWLDMYHRVFDRVSAVVGEQVWNFADFATSQGILRVGGNKKGIFTRDRKPKSAAFLLQKRWTGMNFGEKPQQGGKQ

Assays:
onion epidermis tissue [1] = assay: Fluorescein diacetate staining, count of dead cells after bombardment; format: cell-based; details: 200 μg trypsin or 40 μg RNAse per shot lyophilized onto 0.6 μm gold
Method: Onion epidermis tissues were submerged in 10 mL of MS liquid media to which 100 μL of a 5 mg mL^−1 of fluorescein diacetate (Alfa Aesar) solution in acetone were added. The samples were incubated for 2-5 minutes and directly observed under the green channel filter of the fluorescence microscope. For quantitative measurements, 12 images (10.5×8 mm) were taken with the 5× microscope objective scattered every 0.5 cm (4 columns×3 rows). The total amount of dead cells found on each image was counted.
The high concentration of protein used per shot (250 μg per shot) and the lyophilization process could cause cell death by: (1) physical damage of the potential clumps produced after lyophilizing protein and microparticles and (2) excess of intracellular protein delivery reaching toxic levels. To assess cellular death, onion epidermis tissues were stained with fluorescein diacetate, which stains in fluorescent green the living cells, while the dead ones remain dark (FIG. 7A). […]
As another example of active enzyme delivery, trypsin and RNAse A were chosen. […] The number of dead cells was measured using fluorescein diacetate staining in samples not bombarded, bombarded only with 0.6 μm gold or with 200 μg of trypsin or 40 μg of RNAse per shot. […]

onion epidermis tissues = assay: Delivery of β-glucuronidase or plasmid DNA air dried onto tungsten particles to onion epidermis; format: cell-based; details: 200 μg per shot air-dried onto M5 or M17 tungsten; 1100 psi/6 cm
Method: M5 (0.4 μm in size) and M17 (1.1 μm in size) tungsten particles from Bio-Rad were used. 100 μg of each type of particle and 200 μg of β-glucuronidase enzyme or 1 μg of GFP expressing plasmid pLMNC95 were used per shot. The suspensions were air dried for 2 hours onto the macrocarrier-set. Onion epidermis tissues were bombarded at 1100 psi/6 cm. Samples bombarded with β-glucuronidase were incubated overnight at 37° C. in X-gluc solution as previously described.

onion epidermis tissue [2] = assay: Biolistic delivery of air-dried or freeze-dried protein or DNA, with or without 0.6 μm gold, to onion epidermis; format: cell-based
Method: Previously, protein and 0.6 μm gold projectiles were mixed and poured on top of a macrocarrier of the gene gun, frozen in liquid nitrogen, and lyophilized or freeze-dried. The same experiment was repeated by pouring the protein/0.6 μm gold mixture over a macrocarrier and leaving it to dry on top of a bench for 1 hour or overnight, termed “air-dried” (FIG. 10A). The experiment was done with two different proteins, β-glucuronidase and DS-RED2. Onion epidermis tissues were bombarded using these macrocarriers. An experiment was conducted using β-glucuronidase and DS-RED2, air-dried directly onto the macrocarriers without 0.6 μm gold projectiles (FIG. 10B). […] An experiment was conducted to compare DNA coating based on CaCl2/spermidine precipitation, freeze-drying or air-drying, and 0.6 μm gold particles. […] A DNA containing solution was freeze-dried or air-dried (without 0.6 μm gold projectiles) directly onto macrocarriers. Onion epidermis tissues were bombarded and 1 to 20 fluorescent cells could be observed (FIG. 15 and FIG. 16). Even though the number of cells that were transfected is much lower than when using 0.6 μm gold, protein can be delivered without the use of projectiles.

[3] = tested on: mouse ear pinna tissue cells; assay: Delivery of active β-glucuronidase to mouse ear pinna tissue cells; format: cell-based, CD-1 mice; details: 200 μg per shot air-dried with 90 μg 0.6 μm gold; 650 and 1100 psi; sixteen hours
Method: A mixture of 90 μg of 0.6 μm gold and 200 μg of β-glucuronidase per shot were air-dried onto the macrocarrier set for 2 hours. Ear pinnas of 8 week old CD-1 mice were dissected right after animals were euthanized. The tissues were disposed with the inner part of the ear upwards on an agar medium plate (FIG. 17A) and were immediately bombarded using the PDS-1000/He gene-gun at 650 psi or 1100 psi, 6 cm target distance and 28 mmHg vacuum. Samples were then soaked in X-gluc solution and incubated at 37° C. overnight. Sixteen hours later samples were examined under the microscope. […] Multiple gold particles (detected as dark dots) could be detected in different depths of the same cell (FIG. 17C). The localization of these blue cells in the bombarded tissue is the result of active β-glucuronidase protein delivery.

[4] = tested on: onion epidermis cell tissues; assay: Bombardment of onion epidermis with liquid protein solutions; format: cell-based; details: liquid protein solution on macrocarrier; tissue damage was caused
Text: As a control, β-glucuronidase and DS-RED2 protein solutions were poured over the macrocarrier and onion epidermis cell tissues were bombarded. […] However, the use of lesser volumes, less harsh gene-gun conditions or other liquid propelling methodologies may allow for protein delivery with less tissue damage.

onion epidermis tissue [5] = assay: Biolistic delivery of molecules lyophilized onto 0.6 μm gold microcarriers to onion epidermis tissue; format: cell-based; details: 275 μg per shot lyophilized onto 0.6 μm gold, one day after bombardment
Method: 2 μL of 0.6 μm gold particle stock was mixed with 1 μg of GFP plasmid pLMNC95 or 2 μL of a 400 ng/μL, TRITC-BSA solution. The mixture was poured on a macrocarrier, frozen in liquid nitrogen and freeze-dry for 1 hour prior to onion epidermis tissue bombardment.
Onion epidermis tissue was obtained from the scale leaves of white onion bulbs. Rectangular (3×2.5 cm) pieces were peeled right before the bombardment and placed in solid agar media (0.5 mM of 2-(N-morpholino)ethanesulfonic acid (MES), 15 g L^−1 Bacto agar (BD), pH 5.7) with the peeled side upwards. For quantitative measurements, epidermis pieces of the same scale leaf were distributed among treatments. Tobacco leaves (Nicotiana tabacum var. Petite Havana) were obtained from 3-6 week old in vitro grown plants on MS media (MS medium (Murashige and Skoog, 1962), 2% sucrose, 2.5 g L^−1 gelrite, pH 5.7). Leaves were cut right before bombardment and put with the adaxial surface up on agar media. Hill maize immature embryos were obtained from immature ears provided by the Center for Plant Transformation—Iowa State University. […]
Bright field and fluorescence images were taken using a Zeiss Axio star plus microscope. […] For the green channel fluorescence images a GFP BP filter (Chroma Technology Corp.) was used (λex=470 nm, beam splitter=495 nm and λem=525 nm). […]

Row | Molecule | dead cells compared with controls without the enzymes (indirect measurement of enzyme activity) (onion epidermis tissue [1]) | active enzyme delivery (blue cells after X-gluc incubation) (onion epidermis tissues) | protein delivery after bombardment (onion epidermis tissue [2]; air-dried directly onto macrocarriers without 0.6 μm gold) | degradation when subjected to air drying (onion epidermis tissue [2]; air-dried on macrocarrier) | protein delivery after bombardment (onion epidermis tissue [2]; air-dried with 0.6 μm gold on macrocarrier for 1 hour or overnight) | active enzyme delivery (blue cells after X-gluc incubation) [3] | protein delivery after bombardment [4] | active enzyme delivery (blue cells after X-gluc staining) (onion epidermis tissue [5])
1 | B1 | large amounts of dead cells |  |  |  |  |  |  | 
2 | B2 | large amounts of dead cells |  |  |  |  |  |  | 
3 | B3 |  | several cells were showing blue coloration | protein delivery also could be detected | not substantially degraded | protein delivery was achieved | several blue cells were localized in the tissues | no protein delivery was observed | several blue cells could be observed
